Measured values: patent US10357572B2, “Prodrugs activated by caspase” (priority 2014, dated 2019)
Starred links: 1 amine or outer side, 2 acyl side, 3 side chain; linkers in the order of their positions; H or OH if unused. Non-standard residues stand in square brackets, D forms with d. Residues, ends and D or L forms follow the SMILES beside them. *: point of attachment. Doxorubicin(3'-N) = COc1cccc2c1C(=O)c1c(O)c3c(c(O)c1C2=O)C[C@@](O)(C(=O)CO)C[C@@H]3O[C@H]1C[C@H](N*)[C@H](O)[C@H](C)O1; Hexanoyl(6-maleimido) = O=C1C=CC(=O)N1CCCCCC(=O)*; PABC = O=C(OCc1ccc(N[*:1])cc1)[*:2]

Legend:
[1] = Plasma concentration-time curves of doxorubicin content after intravenous administration to monkeys; type: in vivo; conditions: Cynomolgus monkeys, molar equivalent to 1 mg/kg of doxorubicin
Experimental: The pharmacokinetic profiles of the maleimide-KGDEVD-PABC-doxorubicin (SEQ ID NO: 10) and AcKGDEVD-PABC-doxorubicin (SEQ ID NO: 32) conjugates were determined after intravenous administration to Cynomolgus monkeys at a dose of molar equivalent to 1 mg/kg of doxorubicin (FIG. 28). Blood samples were collected at 15, 30, 45, 60, 90 minutes and then 2, 3, 4, 6, 8, 12, 24, 48, 72, 96, 120, 144, 168 hours post-injection (500 μl each). The collected blood samples were stabilized immediately with sodium citrate and centrifuged for 15 min at 2000×g in a refrigerated centrifuge to separate the plasma. The plasma samples (200 al) were transferred to a 96-well black microplate and the intrinsic fluorescence of doxorubicin was read at Ex 485 nm/Em 590 nm. A standard was prepared in fresh plasma and the fluorescence was read as described above.

[2] = Plasma concentration-time curve of doxorubicin content after intravenous administration to rats; type: in vivo; conditions: Sprague-Dawley rats, molar equivalent to 1 mg/kg of doxorubicin
Experimental: The pharmacokinetic profile of the maleimide-KGDEVD-PABC-doxorubicin (SEQ ID NO: 10) and AcKGDEVD-PABC-doxorubicin (SEQ ID NO: 32) conjugates was determined after intravenous administration to Sprague-Dawley rats at a dose of molar equivalent to 1 mg/kg of doxorubicin (FIG. 25). Blood samples were collected at 5, 15, 30, 60, 90 minutes and then 2, 4, 8, 12, 24, 48, 72, 96, 144 hours post-injection (500 μl each). The collected blood samples were stabilized immediately with sodium citrate and centrifuged for 15 min at 2000×g in a refrigerated centrifuge to separated plasma. The plasma samples (200 μl) were transferred to a 96-well black microplate and the intrinsic fluorescence of doxorubicin was read at Ex 485 nm/Em 590 nm. A standard was prepared in fresh plasma and fluorescence was read as described above.

[3] = biological target: T1, recombinant human caspase-3 (Homo sapiens, UniProt P42574); experiment: HPLC monitored cleavage study by recombinant human caspase-3; type: biochemical; conditions: incubated with purified caspase-3, HPLC
T1 sequence (P42574 29-175 limits assumed): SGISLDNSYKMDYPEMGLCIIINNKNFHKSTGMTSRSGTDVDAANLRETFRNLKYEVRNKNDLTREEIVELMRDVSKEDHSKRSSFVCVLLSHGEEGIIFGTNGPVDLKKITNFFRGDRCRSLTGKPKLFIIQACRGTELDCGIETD
T1 sequence (P42574 176-277 limits assumed): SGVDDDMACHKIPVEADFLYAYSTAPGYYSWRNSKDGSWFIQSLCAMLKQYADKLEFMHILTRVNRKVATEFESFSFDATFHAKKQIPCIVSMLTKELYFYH
Source text: Example 21—HPLC Monitored Cleavage Studies of Human Serum Albumin-Bound Maleimide-KGDEVD-PABC-Doxorubicin (SEQ ID NO: 10) (HSA-KGDEVD-PABC-Doxorubicin (SEQ ID NO: 31)) by Recombinant Human Caspase-3

Compound: COc1cccc2c1C(=O)c1c(O)c3c(c(O)c1C2=O)C[C@@](O)(C(=O)CO)C[C@@H]3O[C@H]1C[C@H](NC(=O)OCc2ccc(NC(=O)[C@H](CC(=O)O)NC(=O)[C@@H](NC(=O)[C@H](CCC(=O)O)NC(=O)[C@H](CC(=O)O)NC(=O)CNC(=O)[C@H](CCCCN)NC(C)=O)C(C)C)cc2)[C@H](O)[C@H](C)O1 [AcKGDEVD-PABC-doxorubicin, Ac-Lys-Gly-Asp-Glu-Val-Asp-PABC-doxorubicin] (Ac-KGDEVD[PABC]-{Doxorubicin(3'-N)})
- time until plasma concentration decreased below the detection limit (5 ng/ml) [1]: ≤ 6 h
- terminal half-life ([1]; plasma fluorescence): 60 min
- time until plasma concentration decreased below the detection limit (5 ng/ml) [2]: ≤ 4 h
- half-life ([2]; rat, in vivo, plasma fluorescence, read-out: terminal half-life): 30 min

Compound: COc1cccc2c1C(=O)c1c(O)c3c(c(O)c1C2=O)C[C@@](O)(C(=O)CO)C[C@@H]3O[C@H]1C[C@H](NC(=O)OCc2ccc(NC(=O)[C@H](CC(=O)O)NC(=O)[C@@H](NC(=O)[C@H](CCC(=O)O)NC(=O)[C@H](CC(=O)O)NC(=O)CNC(=O)[C@H](CCCCNC(=O)CCCCCN3C(=O)C=CC3=O)NC(C)=O)C(C)C)cc2)[C@H](O)[C@H](C)O1 [maleimide-KGDEVD-PABC-doxorubicin, Ac-Lys(EMC)-Gly-Asp-Glu-Val-Asp-PABC-doxorubicin] (Ac-K(Hexanoyl(6-maleimido))GDEVD[PABC]-{Doxorubicin(3'-N)})
- time the plasma concentration was detectable after administration [1]: more than 7 days
- time the conjugate lasted in plasma after administration [2]: more than 6 days

Compound: HSA-maleimide-KGDEVD-PABC-doxorubicin
- time until free doxorubicin was completely liberated from the conjugate [3]: ≤ 1 h
